Consider five molecules from patent publication US20220409535A1, “BIOLOGICAL AGENT-EXOSOME COMPOSITIONS AND USES THEREOF” (The University of North Carolina at Chapel Hill, priority 2016, published 2022).

One series concerns hCMEC/D3 cells. The series can be described thus: Flow cytometry of cell uptake of Mϕ exosomes and endocytosis markers. It is filed as cell-based, human. As to conditions: CM-DiI labeled exosomes, 4 h. As to the method:
Flow Cytometry of Cell Uptake. hCMEC/D3 cells were grown in 24-well plates at […] for 4-5 days to reach confluence. Exosomes were labeled by adding CM-DiI dyes (2 μg/ml, Life Technologies) to the medium before the first […] pelleting step. In the uptake mechanism studies, the cells were pretreated with endocytosis inhibitors, carbohydrates or EGTA for 0.5 h, and then co-treated with CM-DiI labeled exosomes (0.6×10^10 exosomes/ml) for 4 h. The inhibition of endocytosis markers uptake was studied similarly. The endocytosis markers used were Alexa Fluor 488-Transferrin (10 μg/ml, Life technologies) for clathrin mediated endocytosis, Alexa Fluor 488-CTB (5 μg/ml, Life technologies) for caveolae mediated endocytosis, and FITC-Dextran (70 kDa, Sigma) (10 mg/ml) for macropinocytosis. The antibody block assays were done by co-incubating exosomes with antibodies or isotope controls at 100 μg/ml for 4 h. The cells were washed trice by PBS, detached by 0.25% trypsin/EDTA, collected by centrifugation at 100 g for 10 min, fixed with 4% paraformaldehyde for 10 min, and then resuspended in 0.35 ml PBS. Viable singlets were gated based on forward scatter and side scatter. 5,000-10,000 viable singlets were recorded for each sample on Becton Dickinson LSRII (BD Biosciences) using 488 nm and 532 nm lasers. Unless otherwise noted in figure legend, data are not normalized and reported as mean fluorescence±SD of 3 replicate wells.
(In general: In flow cytometry, cells or beads pass a laser one at a time.)

In a further series the test system is ICAM-1. The series can be described thus: ICAM-1 expression in hCMEC/D3 cells by western blot. It is filed as cell-based, human. How it is done: Protein expression was determined by western blot using β-actin as loading control.
In general terms: Immunoblotting shows a protein as a band on a membrane.

In another series the test system is 3LL-M27. The series can be described thus: In vitro cytotoxicity (MTT), 3LL-M27. It is filed as cell-based, murine. The conditions noted are these: Mus musculus; 3LL-M27, 48 hours. As to the method:
(§1) Briefly, cancer cells (MDCKMDR1, MDCKwt, and 3LL-M27) were seeded at 5,000 cells/well in 100 μL of media in 96-well plates overnight. […] Following the incubation, the cells were washed and incubated with MTT reagent as described in Batrakova et al., Mol. Pharm. 3:113 (2006) Epub 2006/04/04. The cytotoxic activity of PTX was then evaluated using a standard MTT assay (Ferrari et al., J. Immunol. Meth. 131:165 (1990)). The absorbance at 570 nm was measured using a Shimadzu RF5000 fluorescent spectrophotometer. The survival values were determined in relation to control cells cultured in drug-free media. All experiments were repeated at least three times. SEM values were less than 10%.

The next series concerns MDCK wt. The series can be described thus: In vitro cytotoxicity (MTT), MDCK wt. The conditions noted are these: Canis lupus familiaris, 48 hours. The class given is cell-based, canine. As to the method: as §1
Another series deals with MDCK MDR1. The series can be described thus: In vitro cytotoxicity (MTT), MDCK MDR1. The class given is cell-based, canine. The conditions noted are these: Canis lupus familiaris; MDCK MDR1, 48 hours. As to the method:
as §1

The next series relates to sigma receptor. The series can be described thus: Receptor competitive inhibition by free anisamide. It is filed as cell-based, murine. As to conditions: 3LL-M27 cells, one hour. As to the method:
Receptor Competitive Inhibition. To determine whether AA-vectorized exosomes to sigma receptor were accumulated in cancer cells via receptor-mediated endocytosis, a receptor competitive inhibition study was carried out. For this purpose, first a lipophilic fluorescent dye, DiL, was incorporated into exosome membranes. Briefly, the supernatant of RAW 264.7 macrophage conditioned media free of cells and cellular debris was filtered with a 0.22 μm PES filter and incubated with DiL dye (4 μM) at 37° C. for 20 min. Following a 20-minute incubation, ExoQuick-TC™ exosome precipitation solution was added to the filtered supernatant, the mixture was vortexed, and incubated overnight at 4° C. Then, the mixture was vortexed again and subsequently centrifuged at 1500×g for 30 minute to pellet exosomes. The supernatant was discarded and the exosome pellet was re-suspended in PBS. Freshly-prepared fluorescently labeled exosomes or exosomes stored at −20° C. were used for all experiments.
Next, 3LL-M27 cells were seeded overnight at 50,000 cells/well in a 96-well plate. […] The fluorescence levels in cell suspensions were measured by a Shimadzu RF5000 fluorescent spectrophotometer, and adjusted for protein content analyzed by BCA Assay using the Pierce BCA Protein Assay Kit (Thermo Fisher Scientific, Waltham, Mass., USA). […]

Series [1] can be described thus: Size of catalase exosomal formulations by DLS and NTA. It is filed as physicochemical. As to conditions: DLS. As to the method: Characterization of different exoCAT formulations by (Dynamic Light Scattering) DLS, (Atomic Force Microscopy) AFM, Nanoparticle Tracking Analysis (NTA), and Hyperspectral microscopy: The effective hydrodynamic diameter of empty exosomes, or exosomes loaded with catalase was measured by DLS using the ZetaPlus' Zeta Potential Analyzer (Brookhaven Instruments, […]., USA) equipped with a 35 mW solid state laser (658 nm laser) as described in (Bronich et al., J. Amer. Chem. Soc. 122:8339 (2000); Vinogradov et al., Colloids Surfaces B-Biointerfaces 16:291 (1999)). The size, distribution, and number of particles for various exosomal formulations were also examined by NTA. For this purpose, exoCAT formulations were prepared at concentration 0.01 mg/mL, and evaluated using NanoSight 500, Version 2.2 (Wiltshire, United Kingdom). The morphology of exoCAT aggregates was investigated by AFM. Different exoCAT formulations were prepared in 50 mM phosphate buffer, pH 7.4 at total protein 10 μg/mL. A drop of the sample was placed on a glass slide, and dried under an argon flow. The AFM imaging was operated as described earlier (Zhao et al., Nanomedicine (Lond) 6:25 (2011)).

Series [2] is described as follows: Preservation of catalase enzymatic activity and stability of exoCAT. It is filed as physicochemical. The conditions noted are these: sonication conditions. How it is done: Enzymatic activity of catalase loaded into exosomes: The loading efficiency for different exoCAT formulations was assessed by catalase enzymatic activity using hydrogen peroxide decomposition assay (Zhao et al., Nanomedicine (Lond) 6:25 (2011)). For this purpose, different exoCAT formulations were incubated with pronase (0.1-0.2 mg/mL) for 3 hours at 37° C. Following the incubation, the aliquots were subjected for catalytic activity assessment as described above. The same assay was used to examine the preservation of catalase enzymatic activity in exosomes against proteases degradation. Stability of catalase was expressed in the residual activity vs. initial activity of catalase.

A further series has as its system PC12 cells. The series can be described thus: Cell viability (MTT) of PC12 cells exposed to 6-OHDA. It is filed as cell-based, rat. How it is done:
Cell viability assay: The protection of PC12 cell by exoCAT prepared by sonication was assessed by MTT assay. For this purpose, PC12 cells (1×10^5 cells/mL) were seeded into a 96-well plate and allowed to attach overnight. Then, the cells were exposed to 200 μM 6-OHDA and different exoCAT formulations, or catalase alone, or empty exosomes for four hours. Following the incubation, the cells were washed 3 times with ice-cold PBS, and incubated with the corresponding exoCAT formulations, or catalase alone, or empty exosomes for another 24 hours. Following the treatment, 20 μL MTT (5 mg/mL) was added into each well. After 3 hours of incubation at 37° C., the medium containing MTT was removed; and 100 μL DMSO was added into each well to dissolve the purple MTT formazan. Absorbances were read at λ=570 nm by a microplate reader, and cell viability was expressed as a percentage of viable cells in the treated groups compared to the untreated control group.

For series [3] the following is noted: calculated from the molecular mass of the enzyme; cited from earlier work.
The subject of the next series is 6-OHDA-intoxicated mice. The series can be described thus: Immunohistochemical and stereological analyses in 6-OHDA PD mouse model. The conditions noted are these: i.n.
Series [4] is described as follows: Brain delivery of BDNF and Mϕ exosomes complex. It is filed as in vivo, mouse. As to conditions: brain-inflamed mice, 10 min. As to the method:
Animal Procedure. Mice were anesthetized with 40% urethane (4 g/kg) by intraperitoneal injection. Iodine labeled substances (4×10^5 cpm) were injected to the right jugular vein. At each time point, blood was collected from the left carotid artery, allowed to clot and then centrifuged at 5400 g for 10 min to collect serum. The whole brain and peripheral organs were removed and weighed immediately after blood sampling. The radioactivity of serum and tissues were counted and normalized to injected dose (ID) by volume (ml) or weight (g) (% ID/ml or % ID/g). An injection check representing ID was also counted (n=3).
PK data analysis. The noncompartmental PK parameters Vss (ml), Cl (ml/min), MRTlast and MRTinf (h) were estimated using Phoenix® WinNonlin® 6.3 (Pharsight). The Ki (slope) and Vi (y-intercept) were calculated from the linear portion of multiple-time regression analysis (Price et al., J. Pharmacol. Exper. Ther. 333:253 (2010); Patlak et al., J. Cerebral Blood Flow Metab. 3:1 (1983); Patlak et al., J. Cerebral Blood Flow Metab. 5:584 (1985)). Brain/serum ratio (Am/Cpt, ml/g) of co-injected BSA was used to correct for the vascular space or leakage (Banks et al, Brain Behav. Immun. 2010, 24:102 (2010)), and subtracted from that of tested substance to get the delta brain/serum ratio. […]
We further determined if Mϕ exosomes would ferry BDNF to the brain. […]

For series [5] the following is noted: Patterson et al.; cited from earlier work.

Values after ≈ are worked out from the molar mass of the structure shown.

Procedure for 6-OHDA-intoxicated mice: For the detection of microglia activation, tissue sections were incubated with primary monoclonal rat anti-mouse anti-CD11b antibodies (1:500 dilution), and secondary biotinylated goat anti-rat antibodies (Vector Laboratories, Burlingame, Calif., 1:200 dilution). […] In addition, levels of astrocytosis were assessed in the ventral midbrain region by fluorescent analysis of glial fibrillary acidic protein (GFAP) expression. For the GFAP staining, tissue sections were permeabilized with 0.01% Triton X-100 in TBS for 30 minutes and blocked for 1 hour with 10% normal goat serum (NGS, Vector Laboratories Inc., Burlingame, Calif.), then incubated with rabbit anti-GFAP primary polyclonal antibodies ab7260 (AbCam, Cambridge, Mass.) 1:100 dilution for 16 hours at 4° C. […] Immunoreactivity was evaluated by fluorescent analysis using confocal microscope Zeiss 510 Meta Confocal Laser Scanning Microscope (Jena, Germany), and ImageJ software (NIH, Bethesda, Mass., USA).

For the molecule `N[C@H]1C(O)O[C@H](CO)[C@@H](O)[C@@H]1O` (stereo partly drawn) [glucosamine], the “effect on uptake of Mϕ exosomes” value in the series on hCMEC/D3 cells is “inhibited the uptake at lower concentrations”. For the same molecule, the ICAM-1 expression entry in the series on ICAM-1 is on record as “did not inhibit the expression of ICAM-1”.

One may read the IC50 as the point on the concentration scale where inhibition reaches its midpoint. Take `CC(=O)O[C@H]1C(=O)[C@@]2(C)[C@H]([C@H](OC(=O)c3ccccc3)[C@]3(O)C[C@H](OC(=O)[C@H](O)[C@@H](NC(=O)c4ccccc4)c4ccccc4)C(C)=C1C3(C)C)[C@]1(OC(C)=O)CO[C@@H]1C[C@@H]2O` [PTX, paclitaxel]: the results for the IC50 with 3LL-M27, in the series with MDCK wt and with MDCK MDR1 were 0.126 ± 0.0313 µg/mL (≈ 0.148 µM), 0.429 ± 0.0634 µg/mL (≈ 0.502 µM) and more than 10 µg/mL, respectively.

As to `COc1ccc(C(N)=O)cc1` [free AA, anisamide], the “competitive inhibition of uptake by free AA” value in the series with sigma receptor is “not able completely inhibit exosome uptake”.

B1: Catalase alone: Catalase from bovine liver (protein, UniProt P00432 2-527, looked up)
Catalase: ADNRDPASDQMKHWKEQRAAQKPDVLTTGGGNPVGDKLNSLTVGPRGPLLVQDVVFTDEMAHFDRERIPERVVHAKGAGAFGYFEVTHDITRYSKAKVFEHIGKRTPIAVRFSTVAGESGSADTVRDPRGFAVKFYTEDGNWDLVGNNTPIFFIRDALLFPSFIHSQKRNPQTHLKDPDMVWDFWSLRPESLHQVSFLFSDRGIPDGHRHMNGYGSHTFKLVNANGEAVYCKFHYKTDQGIKNLSVEDAARLAHEDPDYGLRDLFNAIATGNYPSWTLYIQVMTFSEAEIFPFNPFDLTKVWPHGDYPLIPVGKLVLNRNPVNYFAEVEQLAFDPSNMPPGIEPSPDKMLQGRLFAYPDTHRHRLGPNYLQIPVNCPYRARVANYQRDGPMCMMDNQGGAPNYYPNSFSAPEHQPSALEHRTHFSGDVQRFNSANDDNVTQVRTFYLKVLNEEQRKRLCENIAGHLKDAQLFIQKKAVKNFSDVHPEYGSRIQALLDKYNEEKPKNAVHTYVQHGSHLSAREKANL
For B1, in series [1], the “Deff (nm)” value is given as 9.5 nm and the PdI was determined as 0.10. Also, the “Deff (nm)” value in series [1] (listed as naked catalase) was 9.5 nm. In addition, the “catalase enzymatic activity upon sonication” value in series [2] worked out at 14%. The “neuroprotective activity (neuronal survival, MTT)” value in the series with PC12 cells is reported as “did not protect PC12 cells”. For the same molecule, in [3], the “theoretical diameter of a single protein globule” value is listed as 10.5 nm. Further, the “anti-inflammatory and neuroprotective effect” value in the series with 6-OHDA-intoxicated mice was “not effective in decreasing inflammation or providing neuroprotection”.

B2: BDNF: brain derived neurotrophic factor (protein, UniProt P23560 19-247, looked up)
Neurotrophic factor BDNF …: APMKEANIRGQGGLAYPGVRTHGTLESVNGPKAGSRGLTSLADTFEHVIEELLDEDQKVRPNEENNKDADLYTSRVMLSSQVPLEPPLLFLLEEYKNYLDAANMSMRVRRHSDPARRGELSVCDSISEWVTAADKKTAVDMSGGTVTVLEKVPVSKGQLKQYFYETKCNPMGYTKEGCRGIDKRHWNSQCRTTQSYVRALTMDSKKRIGWRFIRIDTSCVCTLTIKRGR
Take B2: the “brain accumulation of BDNF” value in series [4] was “the difference was not significant”. Moreover, in series [5], the isoelectric point was 9.99.
